Source: US20260242419A1, “A CYCLIC PEPTIDE FOR TRAPPING INTERLEUKIN-1 BETA” (Merck Sharp & Dohme LLC, priority 2023, published 2026)
Starred links: 1 amine or outer side, 2 acyl side, 3 side chain; linkers in the order of their positions; H or OH if unused. Non-standard residues stand in square brackets, D forms with d. Primed or numbered codes have the meaning given here. AEFBz4Piperaz = (S)-2-amino-3-(4-(2-(4-(piperazin-1-yl)benzamido)ethoxy)phenyl)propanoic acid, O=C(NCCOc1ccc(C[C@H](N[*:1])C(=O)[*:2])cc1)c1ccc(N2CCN([*:3])CC2)cc1; AEF4AcPip4c = (S)-3-(4-(2-(1-acetylpiperidine-4-carboxamido)ethoxy)phenyl)-2-aminopropanoic acid, CC(=O)N1CCC(C(=O)NCCOc2ccc(C[C@H](N[*:1])C(=O)[*:2])cc2)CC1; AEF2PyrimCO = (S)-2-amino-3-(4-(2-(pyrimidine-2-carboxamido)ethoxy)phenyl)propanoic acid, O=C(NCCOc1ccc(C[C@H](N[*:1])C(=O)[*:2])cc1)c1ncccn1; AEF4PyrimCO = (S)-2-amino-3-(4-(2-(pyrimidine-4-carboxamido)ethoxy)phenyl)propanoic acid, O=C(NCCOc1ccc(C[C@H](N[*:1])C(=O)[*:2])cc1)c1ccncn1; AEFPyrzCO = (S)-2-amino-3-(4-(2-(pyrazine-2-carboxamido)ethoxy)phenyl)propanoic acid, O=C(NCCOc1ccc(C[C@H](N[*:1])C(=O)[*:2])cc1)c1cnccn1; AEFcHex = (S)-2-amino-3-(4-(2-(cyclohexanecarboxamido)ethoxy)phenyl)propanoic acid, O=C(NCCOc1ccc(C[C@H](N[*:1])C(=O)[*:2])cc1)C1CCCCC1; AEF4PyrCO = (S)-2-amino-3-(4-(2-(isonicotinamido)ethoxy)phenyl)propanoic acid, O=C(NCCOc1ccc(C[C@H](N[*:1])C(=O)[*:2])cc1)c1ccncc1; AEFPiv = (S)-2-amino-3-(4-(2-pivalamidoethoxy)phenyl)propanoic acid, CC(C)(C)C(=O)NCCOc1ccc(C[C@H](N[*:1])C(=O)[*:2])cc1; AEFBz = (S)-2-amino-3-(4-(2-benzamidoethoxy)phenyl)propanoic acid, O=C(NCCOc1ccc(C[C@H](N[*:1])C(=O)[*:2])cc1)c1ccccc1; TyrEtNAc = (2S)-3-[4-(2-acetamidoethoxy)phenyl]-2-amino-propanoic acid, CC(=O)NCCOc1ccc(C[C@H](N[*:1])C(=O)[*:2])cc1; DabMe3 = [(3S)-3-amino-4-oxo-butyl]-trimethyl-ammonium, C[N+](C)(C)CC[C@H](N[*:1])C(=O)[*:2]; OrnMe3 = ornithine with side-chain trimethylammonium, C[N+](C)(C)CCC[C@H](N[*:1])C(=O)[*:2]; Ala3Isoxa5Me = 3-(5-methylisoxazol-3-yl)alanine, Cc1cc(C[C@H](N[*:1])C(=O)[*:2])no1; 4PyrimAla″ = 3-(pyrimidin-4-yl)alanine, O=C([C@H](Cc1ccncn1)N[*:1])[*:2]; Ala2Oxa = 3-(oxazol-2-yl)alanine, O=C([C@H](Cc1ncco1)N[*:1])[*:2]; dPro(4R-(4-pyridylmethyl)) = O=C(O)[C@H]1C[C@@H](Cc2ccncc2)CN1; Trp(βS-Me,4-F) = C[C@@H](c1c[nH]c2cccc(F)c12)[C@H](N)C(=O)O; Bip(4'-COOH) = N[C@@H](Cc1ccc(-c2ccc(C(=O)O)cc2)cc1)C(=O)O; dPro(4R-Bzl(4-F)) = O=C(O)[C@H]1C[C@@H](Cc2ccc(F)cc2)CN1; dPro(3S-(4-F-Bn)) = O=C(O)[C@@H]1NCC[C@@H]1Cc1ccc(F)cc1; Ala(pyrimidin-5-yl) = N[C@@H](Cc1cncnc1)C(=O)O; Phe(4-COOH) = N[C@@H](Cc1ccc(C(=O)O)cc1)C(=O)O; Phe(4-tBu) = CC(C)(C)c1ccc(C[C@H](N)C(=O)O)cc1; Lys(Me3) = C[N+](C)(C)CCCC[C@H](N)C(=O)O; Phe(3-Cl) = N[C@@H](Cc1cccc(Cl)c1)C(=O)O; Phe(4-Br) = N[C@@H](Cc1ccc(Br)cc1)C(=O)O; Pro(cis-4-F) = O=C(O)[C@@H]1C[C@H](F)CN1; Ala(4-THP) = N[C@@H](CC1CCOCC1)C(=O)O; d(αMeD) = C[C@@](N)(CC(=O)O)C(=O)O; 4Pal = N[C@@H](Cc1ccncc1)C(=O)O; Dab = NCC[C@H](N)C(=O)O; Aib = CC(C)(N)C(=O)O

B1: SEQ ID NO 298 (peptide)
peptide: cyclo([Bip(4'-COOH)][4Pal][Phe(4-COOH)]G[Pro(cis-4-F)][Trp(βS-Me,4-F)][Aib]SW[Aib][Lys(Me3)]Q[Dab]G[dPro(4R-Bzl(4-F))])
modifications: ring closure inferred; not fully specified (N-terminus); printed as cyclic, Bip4CO2H-4Pal-Phe4COOH-G-Proc4F-sbMeW4F-Aib-S-W-Aib-LysMe3-Q-Dab-G-dProc4Bn4F
B2: SEQ ID NO 297 (peptide)
peptide: cyclo([Bip(4'-COOH)][4Pal][Phe(4-COOH)]G[Pro(cis-4-F)][Trp(βS-Me,4-F)][Aib]SW[Aib][OrnMe3]Q[Dab]G[dPro(4R-Bzl(4-F))])
modifications: ring closure inferred; not fully specified (N-terminus); printed as cyclic, Bip4CO2H-4Pal-Phe4COOH-G-Proc4F-sbMeW4F-Aib-S-W-Aib-OrnMe3-Q-Dab-G-dProc4Bn4F
B3: SEQ ID NO 305 (peptide)
peptide: cyclo([AEF4PyrimCO][4Pal][Phe(4-COOH)]G[Pro(cis-4-F)][Trp(βS-Me,4-F)][Aib]SW[Aib][Ala(pyrimidin-5-yl)]Q[Dab]G[dPro(4R-(4-pyridylmethyl))])
modifications: ring closure inferred; not fully specified (N-terminus); printed as cyclic, AEF4PyrimCO-4Pal-Phe4COOH-G-Proc4F-SbMeW4F-Aib-S-W-Aib-PyrimAla-Q-Dab-G-dProc4CH24Pal
B4: SEQ ID NO 299 (peptide)
peptide: cyclo([Phe(4-Br)][4Pal][Phe(4-COOH)]G[Pro(cis-4-F)][Trp(βS-Me,4-F)][Aib]SW[d(αMeD)][Ala(pyrimidin-5-yl)]Q[Dab]G[dPro(3S-(4-F-Bn))])
modifications: ring closure inferred; not fully specified (N-terminus); printed as cyclic, Phe4Br-4Pal-Phe4COOH-G-Proc4F-SbMeW4F-Aib-S-W-daMeD-PyrimAla-Q-Dab-G-dProc3Bn4F
B5: SEQ ID NO 311 (peptide)
peptide: cyclo([Phe(4-tBu)][4Pal][Phe(4-COOH)]G[Pro(cis-4-F)][Trp(βS-Me,4-F)][Aib]EW[Aib][Ala(pyrimidin-5-yl)]Q[Dab]G[dPro(4R-(4-pyridylmethyl))])
modifications: ring closure inferred; not fully specified (N-terminus); printed as cyclic, Phe4tButyl-4Pal-Phe4COOH-G-Proc4F-SbMeW4F-Aib-E-W-Aib-PyrimAla-Q-Dab-G-dProc4CH24Pal
B6: SEQ ID NO 314 (peptide)
peptide: cyclo([Bip(4'-COOH)][4Pal][Phe(4-COOH)]G[Pro(cis-4-F)][Trp(βS-Me,4-F)][Aib]SW[Aib][DabMe3]Q[Dab]G[dPro(4R-Bzl(4-F))])
modifications: ring closure inferred; not fully specified (N-terminus); printed as cyclic, Bip4CO2H-4Pal-Phe4COOH-G-Proc4F-sbMeW4F-Aib-S-W-Aib-DabMe3-Q-Dab-G-dProc4Bn4F
B7: SEQ ID NO 304 (peptide)
peptide: cyclo([AEF2PyrimCO][4Pal][Phe(4-COOH)]G[Pro(cis-4-F)][Trp(βS-Me,4-F)][Aib]SW[Aib][Ala(pyrimidin-5-yl)]Q[Dab]G[dPro(4R-(4-pyridylmethyl))])
modifications: ring closure inferred; not fully specified (N-terminus); printed as cyclic, AEF2PyrimCO-4Pal-Phe4COOH-G-Proc4F-SbMeW4F-Aib-S-W-Aib-PyrimAla-Q-Dab-G-dProc4CH24Pal
B8: SEQ ID NO 307 (peptide)
peptide: cyclo([AEF4PyrCO][4Pal][Phe(4-COOH)]G[Pro(cis-4-F)][Trp(βS-Me,4-F)][Aib]SW[Aib][Ala(pyrimidin-5-yl)]Q[Dab]G[dPro(4R-(4-pyridylmethyl))])
modifications: ring closure inferred; not fully specified (N-terminus); printed as cyclic, AEF4PyrCO-4Pal-Phe4COOH-G-Proc4F-SbMeW4F-Aib-S-W-Aib-PyrimAla-Q-Dab-G-dProc4CH24Pal
B9: SEQ ID NO 308 (peptide)
peptide: cyclo([AEFBz][4Pal][Phe(4-COOH)]G[Pro(cis-4-F)][Trp(βS-Me,4-F)][Aib]SW[Aib][Ala(pyrimidin-5-yl)]Q[Dab]G[dPro(4R-(4-pyridylmethyl))])
modifications: ring closure inferred; not fully specified (N-terminus); printed as cyclic, AEFBz-4Pal-Phe4COOH-G-Proc4F-SbMeW4F-Aib-S-W-Aib-PyrimAla-Q-Dab-G-dProc4CH24Pal
B10: SEQ ID NO 306 (peptide)
peptide: cyclo([AEFBz4Piperaz][4Pal][Phe(4-COOH)]G[Pro(cis-4-F)][Trp(βS-Me,4-F)][Aib]SW[Aib][Ala(pyrimidin-5-yl)]Q[Dab]G[dPro(4R-(4-pyridylmethyl))])
modifications: ring closure inferred; not fully specified (N-terminus); printed as cyclic, AEFBz4Piperaz-4Pal-Phe4COOH-G-Proc4F-SbMeW4F-Aib-S-W-Aib-PyrimAla-Q-Dab-G-dProc4CH24Pal
B11: SEQ ID NO 313 (peptide)
peptide: cyclo([Bip(4'-COOH)][4Pal][Phe(4-COOH)]G[Pro(cis-4-F)][Trp(βS-Me,4-F)][Aib]SW[d(αMeD)][Ala(4-THP)]Q[Dab]G[dPro(4R-Bzl(4-F))])
modifications: ring closure inferred; not fully specified (N-terminus); printed as cyclic, Bip4CO2H-4Pal-Phe4COOH-G-Proc4F-SbMeW4F-Aib-S-W-daMeD-AlaTHP4-Q-Dab-G-dProc4Bn4F
B12: SEQ ID NO 303 (peptide)
peptide: cyclo([AEFPyrzCO][4Pal][Phe(4-COOH)]G[Pro(cis-4-F)][Trp(βS-Me,4-F)][Aib]SW[Aib][Ala(pyrimidin-5-yl)]Q[Dab]G[dPro(4R-(4-pyridylmethyl))])
modifications: ring closure inferred; not fully specified (N-terminus); printed as cyclic, AEFPyrzCO-4Pal-Phe4COOH-G-Proc4F-SbMeW4F-Aib-S-W-Aib-PyrimAla-Q-Dab-G-dProc4CH24Pal
B13: SEQ ID NO 312 (peptide)
peptide: cyclo([Bip(4'-COOH)][4Pal][Phe(4-COOH)]G[Pro(cis-4-F)][Trp(βS-Me,4-F)][Aib]EW[Aib][4PyrimAla″]Q[Dab]G[dPro(3S-(4-F-Bn))])
modifications: ring closure inferred; not fully specified (N-terminus); printed as cyclic, Bip4CO2H-4Pal-Phe4COOH-G-Proc4F-SbMeW4F-Aib-E-W-Aib-4PyrimAla-Q-Dab-G-dProc3Bn4F
B14: SEQ ID NO 302 (peptide)
peptide: cyclo([AEF4AcPip4c][4Pal][Phe(4-COOH)]G[Pro(cis-4-F)][Trp(βS-Me,4-F)][Aib]SW[Aib][Ala(pyrimidin-5-yl)]Q[Dab]G[dPro(4R-(4-pyridylmethyl))])
modifications: ring closure inferred; not fully specified (N-terminus); printed as cyclic, AEF4AcPip4c-4Pal-Phe4COOH-G-Proc4F-SbMeW4F-Aib-S-W-Aib-PyrimAla-Q-Dab-G-dProc4CH24Pal

What follows are binders tested against Recombinant human IL-1β (BioLegend 579404) (human, UniProt P01584 117-269) (assay: cell-based or functional assay).

In order of rising “MRC5 IC50” value:
1. B4  0.012 nM
2. B9  0.013 nM
3. cyclo([AEFPiv][4Pal][Phe(4-COOH)]G[Pro(cis-4-F)][Trp(βS-Me,4-F)][Aib]SW[Aib][Ala(pyrimidin-5-yl)]Q[Dab]G[dPro(4R-(4-pyridylmethyl))]) (ring closure inferred; not fully specified (N-terminus)) [SEQ ID NO 300]  0.013 nM
4. B7  0.014 nM
5. B1  0.015 nM
6. B11  0.015 nM
7. B3  0.016 nM
8. B12  0.016 nM
9. cyclo([TyrEtNAc][4Pal][Phe(4-COOH)]G[Pro(cis-4-F)][Trp(βS-Me,4-F)][Aib]EW[Aib]YQ[Dab]G[dPro(4R-(4-pyridylmethyl))]) (ring closure inferred; not fully specified (N-terminus)) [SEQ ID NO 310]  0.017 nM
10. B5  0.017 nM
11. cyclo([AEFcHex][4Pal][Phe(4-COOH)]G[Pro(cis-4-F)][Trp(βS-Me,4-F)][Aib]SW[Aib][Ala(pyrimidin-5-yl)]Q[Dab]G[dPro(4R-(4-pyridylmethyl))]) (ring closure inferred; not fully specified (N-terminus)) [SEQ ID NO 301]  0.017 nM
12. B13  0.017 nM
13. B14  0.017 nM
14. cyclo([TyrEtNAc][4Pal][Phe(4-COOH)]G[Pro(cis-4-F)][Trp(βS-Me,4-F)][Aib]EW[Aib][Ala3Isoxa5Me]Q[Dab]G[dPro(4R-(4-pyridylmethyl))]) (ring closure inferred; not fully specified (N-terminus)) [SEQ ID NO 315]  0.018 nM
15. cyclo([TyrEtNAc][4Pal][Phe(4-COOH)]G[Pro(cis-4-F)][Trp(βS-Me,4-F)][Aib]EW[Aib][Phe(3-Cl)]Q[Dab]G[dPro(4R-(4-pyridylmethyl))]) (ring closure inferred; not fully specified (N-terminus)) [SEQ ID NO 309]  0.018 nM
16. B8  0.018 nM
17. B6  0.02 nM
18. B10  0.02 nM
19. cyclo([TyrEtNAc][4Pal][Phe(4-COOH)]G[Pro(cis-4-F)][Trp(βS-Me,4-F)][Aib]EW[Aib][Ala2Oxa]Q[Dab]G[dPro(4R-(4-pyridylmethyl))]) (ring closure inferred; not fully specified (N-terminus)) [SEQ ID NO 316]  0.02 nM
20. B2  0.022 nM
